Columns and labels:
[1] = biological target: H77c core-E1ΔHVR1E2 HCVpp (HCV E1E2 without HVR1) (Hepatitis C virus genotype 1a, isolate H77C) (UniProt P27958); assay: binding affinity to HCVpp (method not given)
[2] = biological target: H77c core-E1E2 HCVpp (HCV E1E2 with HVR1) (Hepatitis C virus genotype 1a, isolate H77C); assay: binding affinity to HCVpp (method not given)

For CBH-4D (antibody), the Kd [1] was 0.48 nM and the Kd [2] was 0.84 nM.
For CBH-4G (antibody), the Kd [1] was 5.29 nM and the Kd [2] was 5.43 nM.
Work on CBH-5 (antibody) yielded a Kd [1] of 0.56 nM and a Kd [2] of 4 nM.
Substance CBH-7 (antibody) has a Kd [1] of 0.08 nM and a Kd [2] of 0.24 nM.
Substance CBH-23 (antibody) has a Kd [1] of 0.09 nM and a Kd [2] of 0.17 nM.
